# B1: Aurora kinase A (Homo sapiens), O14965 (parent)
# chain: MDRSKENCISGPVKATAPVGGPKRVLVTQQFPCQNPLPVNSGQAQRVLCPSNSSQRIPLQAQKLVSSHKPVQNQKQKQLQATSVPHPVSRPLNNTQKSKQPLPSAPENNPEEELASKQKNEESKKRQWALEDFEIGRPLGKGKFGNVYLAREKQSKFILALKVLFKAQLEKAGVEHQLRREVEIQSHLRHPNILRLYGYFHDATRVYLILEYAPLGTVYRELQKLSKFDEQRTATYITELANALSYCHSKRVIHRDIKPENLLLGSAGELKIADFGWSVHAPSSRRTTLCGTLDYLPPEMIEGRMHDEKVDLWSLGVLCYEFLVGKPPFEANTYQETYKRISRVEFTFPDFVTEGARDLISRLLKHNPSQRPMLREVLEHPWITANSSKPSNCQNKESASKQS
# Variants of: B1
# Conditions: with plk1_human PLK1, P53350
# Sequence of plk1_human PLK1, P53350 (P53350 whole entry): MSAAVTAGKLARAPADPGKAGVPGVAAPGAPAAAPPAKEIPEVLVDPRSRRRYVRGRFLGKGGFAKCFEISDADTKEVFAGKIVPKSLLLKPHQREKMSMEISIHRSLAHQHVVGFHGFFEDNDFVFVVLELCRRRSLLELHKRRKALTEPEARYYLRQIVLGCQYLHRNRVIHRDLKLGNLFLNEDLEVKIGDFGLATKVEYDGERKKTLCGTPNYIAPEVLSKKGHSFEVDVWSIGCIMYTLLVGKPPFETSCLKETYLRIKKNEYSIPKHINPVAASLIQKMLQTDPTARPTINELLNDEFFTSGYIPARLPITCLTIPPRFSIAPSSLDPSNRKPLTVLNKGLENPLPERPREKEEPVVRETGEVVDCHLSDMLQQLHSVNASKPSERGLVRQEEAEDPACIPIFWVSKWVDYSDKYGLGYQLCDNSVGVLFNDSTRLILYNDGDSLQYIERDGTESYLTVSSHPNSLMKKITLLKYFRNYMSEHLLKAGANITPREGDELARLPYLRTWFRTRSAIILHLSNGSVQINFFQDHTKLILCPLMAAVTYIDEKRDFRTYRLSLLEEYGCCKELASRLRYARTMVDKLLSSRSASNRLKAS
row,Variant,effect of a mutation on the interaction
1,K162R,disrupting interaction

# Reference: IntAct's records for PubMed 18615013
